Test results reported in patent publication US20210206875A1, “ERBB-2 TARGETING AGENT AND A BISPECIFIC ANTIBODY WITH ANTIGEN-BINDING SITES THAT BIND AN EPITOPE ON AN EXTRACELLULAR PART OF ERB-2 AND ERBB-3, FOR TREATMENT OF AN INDIVIDUAL WITH AN ERBB-2, ERBB-2/ERBB-3 POSITIVE TUMOUR” (Merus N.V., priority 2017, published 2021).

Molecular target: human ErbB-3 (HER3), on cells (human) (UniProt P21860)
Experiment: cell-based or functional assay

BxPC3 % Inhibition: -7%
MCF-7 IC50 (pM), HRG dependent proliferation: 504 pM
B1: #Ab6 (antibody, from another filing, IgG1, V domains shown)
VH: EVQLLESGGGLVQPGGSLRLSCAASGFTFSHYVMAWVRQAPGKGLEWVSSISSSGGWTLYADSVKGRFTISRDNSKNTLYLQMNSLRAEDTAVYYCTRGLKMATIFDYWGQGTLVTVSS
VL: QSALTQPASVSGSPGQSITISCTGTSSDVGSYNVVSWYQQHPGKAPKLIIYEVSQRPSGVSNRFSGSKSGNTASLTISGLQTEDEADYYCCSYAGSSIFVIFGGGTKVTVL
